Assay results from the supplement of paper PMC7877785.
± gives the uncertainty stated by the source.

Experiment: self-splicing fitness, log relative to wild type (ln ratio); higher = more splicing; Tetrahymena group I intron in knt gene, E. coli kanamycin selection, DiMSum; sequences stand for … in CUCUCU…GGAGGGAAAAGUUAUCAGGCAUGCACCUGGUAGCUAGUCUUUAAACCAAUAGAUUGCAUCGGUUUAAAAGGCAAGACCGUCAAAUUGCGGGAAAGGGGUCAACAGCCGUUCAGUACCAAGUCUCAGGGGAAACUUUGAGAUGGCCUUGCAAAGGGUAUGGUAAUAAGCUGACGGACAUGGUCCUAACCACGCAGCCAAGUCCUAAGUCAACAGAUCUUCUGUUGAUAUGGAUGCAGUUCACAGACUAAAUGUCGGUCGGGGAAGAUGUAUUCUUCUCAUAAGAUAUAGUCGGACCUCUCCUUAAUGGGAGCUAGCGGAUGAAGUGAUGCAACACUGGAGCCGCUGGGAACUAAUUUGUAUGCGAAAGUAUAUUGAUUAGUUUUGGAGUACUCGUGGUCG
How it was run: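 The eight P1ex-region nucleotides of an intron in the knt kanamycin-resistance gene on pET-22b(+) were all randomised and the library put into E. coli BL21(DE3). Six replicate transformations were grown overnight at 37°C or 30°C on LB agar with or without 25 μg/mL kanamycin, together with 100 μg/mL carbenicillin, 50 μM IPTG and 0.2% rhamnose. Colonies were pooled and amplicon-sequenced on an Illumina HiSeq 2500. Fitness from DiMSum is the error-weighted combination of wild-type-normalised replicate fold changes, kanamycin over none.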

| Sequence | self-splicing fitness (ln) (30 °C) | self-splicing fitness (ln) (37 °C) |
| --- | --- | --- |
| UAUUAGCAAUAUUACGCCAA | -1.65 ± 0.2 | -1.68 ± 0.23 |
| UAUUAGCAAUAUUACGCCCU | -1.3 ± 0.21 | 0.526 ± 0.2 |
| UAUUAGCAAUAUUACGCCGA | -2.3 ± 0.31 | -0.195 ± 0.28 |
| UAUUAGCAAUAUUACGCCUG | -0.0456 ± 0.13 | 0.00497 ± 0.16 |
| UAUUAGCAAUAUUACGGCGA | -0.206 ± 0.15 | -0.325 ± 0.16 |
| UAUUAGCAAUAUUACGGGCU | -3.47 ± 0.27 | -2.3 ± 0.23 |
| UAUUAGCAAUAUUACGGGUU | -2.08 ± 0.13 | -1.77 ± 0.2 |
| UAUUAGCAAUAUUACGUAAC | -1.8 ± 0.19 | -1.09 ± 0.2 |
| UAUUAGCAAUAUUACGUGCU | -2.12 ± 0.12 | -2.04 ± 0.15 |
| UAUUAGCAAUAUUACGUUUA | -1.6 ± 0.21 | 0.132 ± 0.2 |
| UCAAAGCAAUAUUACGAGUA | -2.07 ± 0.083 | -0.678 ± 0.072 |
| UCAAAGCAAUAUUACGAUAU | -3.62 ± 0.23 | -2.67 ± 0.18 |
| UCAAAGCAAUAUUACGAUCA | -0.91 ± 0.12 | -0.719 ± 0.11 |
| UCAAAGCAAUAUUACGAUCC | -3.21 ± 0.3 | -2.34 ± 0.4 |
| UCAAAGCAAUAUUACGCAUA | -2.68 ± 0.17 | -1.62 ± 0.16 |
| UCAAAGCAAUAUUACGCCAA | -2.7 ± 0.28 | -2.12 ± 0.37 |
| UCAAAGCAAUAUUACGCCGU | -2.43 ± 0.18 | -0.576 ± 0.12 |
| UCAAAGCAAUAUUACGCGGU | -2.75 ± 0.14 | -2.97 ± 0.16 |
| UCAAAGCAAUAUUACGCUCG | -0.615 ± 0.081 | -0.0673 ± 0.12 |

| Sequence | self-splicing fitness (ln) (30 °C) | self-splicing fitness (ln) (37 °C) |
| --- | --- | --- |
| UCAAAGCAAUAUUACGCUUA | -2.87 ± 0.14 | -2.53 ± 0.17 |
| UCAAAGCAAUAUUACGCUUC | -4.01 ± 0.23 | -2.02 ± 0.23 |
| UCAAAGCAAUAUUACGGACU | -3.52 ± 0.3 | -2.27 ± 0.25 |
| UCAAAGCAAUAUUACGGAGA | -3.38 ± 0.28 | -1.61 ± 0.17 |
| UCAAAGCAAUAUUACGGGUG | -0.366 ± 0.056 | 0.234 ± 0.074 |
| UCAAAGCAAUAUUACGGUGA | -0.776 ± 0.098 | -0.408 ± 0.11 |
| UCAAAGCAAUAUUACGGUUC | -4.38 ± 0.22 | -2.5 ± 0.15 |
| UCAAAGCAAUAUUACGUAAG | -1.77 ± 0.08 | -0.788 ± 0.1 |
| UCAAAGCAAUAUUACGUUAG | -2.02 ± 0.12 | -1.64 ± 0.12 |
| UCAAAGCAAUAUUACGUUAU | -3.43 ± 0.18 | -3.37 ± 0.35 |
| UCAAAGCAAUAUUACGUUCG | -1.17 ± 0.087 | -0.407 ± 0.12 |
| UCAAAGCAAUAUUACGUUUU | -3.28 ± 0.16 | -3.18 ± 0.3 |
| UCACAGCAAUAUUACGAACU | -3.39 ± 0.16 | -2.23 ± 0.15 |
| UCACAGCAAUAUUACGAAUU | -4.34 ± 0.22 | -2.4 ± 0.16 |
| UCACAGCAAUAUUACGACAA | -1.3 ± 0.13 | -0.0758 ± 0.096 |
| UCACAGCAAUAUUACGACAC | -3.44 ± 0.38 | -2.71 ± 0.34 |
| UCACAGCAAUAUUACGACAG | -2.15 ± 0.082 | -1.47 ± 0.088 |
| UCACAGCAAUAUUACGACCA | -1.89 ± 0.21 | 0.0251 ± 0.21 |
